Results published in patent publication US20220056111A1 (YUROGEN BIOSYSTEMS, published 2022).

Key:
[1] = biological target: SARS-CoV-2 Spike S1 protein (SARS-CoV-2, UniProt P0DTC2 16-685)
[2] = biological target: RBD (receptor binding domain) of the SARS-CoV-2 S1 (SARS-CoV-2, UniProt P0DTC2 319-541)
HcoV-NL63 S protein = biological target: T1, HcoV-NL63 S protein (HcoV-NL63, UniProt Q6Q1S2 19-1296); assay: direct ELISA, OD450
T1 construct: also called hCov-NL63 S1
T1 sequence: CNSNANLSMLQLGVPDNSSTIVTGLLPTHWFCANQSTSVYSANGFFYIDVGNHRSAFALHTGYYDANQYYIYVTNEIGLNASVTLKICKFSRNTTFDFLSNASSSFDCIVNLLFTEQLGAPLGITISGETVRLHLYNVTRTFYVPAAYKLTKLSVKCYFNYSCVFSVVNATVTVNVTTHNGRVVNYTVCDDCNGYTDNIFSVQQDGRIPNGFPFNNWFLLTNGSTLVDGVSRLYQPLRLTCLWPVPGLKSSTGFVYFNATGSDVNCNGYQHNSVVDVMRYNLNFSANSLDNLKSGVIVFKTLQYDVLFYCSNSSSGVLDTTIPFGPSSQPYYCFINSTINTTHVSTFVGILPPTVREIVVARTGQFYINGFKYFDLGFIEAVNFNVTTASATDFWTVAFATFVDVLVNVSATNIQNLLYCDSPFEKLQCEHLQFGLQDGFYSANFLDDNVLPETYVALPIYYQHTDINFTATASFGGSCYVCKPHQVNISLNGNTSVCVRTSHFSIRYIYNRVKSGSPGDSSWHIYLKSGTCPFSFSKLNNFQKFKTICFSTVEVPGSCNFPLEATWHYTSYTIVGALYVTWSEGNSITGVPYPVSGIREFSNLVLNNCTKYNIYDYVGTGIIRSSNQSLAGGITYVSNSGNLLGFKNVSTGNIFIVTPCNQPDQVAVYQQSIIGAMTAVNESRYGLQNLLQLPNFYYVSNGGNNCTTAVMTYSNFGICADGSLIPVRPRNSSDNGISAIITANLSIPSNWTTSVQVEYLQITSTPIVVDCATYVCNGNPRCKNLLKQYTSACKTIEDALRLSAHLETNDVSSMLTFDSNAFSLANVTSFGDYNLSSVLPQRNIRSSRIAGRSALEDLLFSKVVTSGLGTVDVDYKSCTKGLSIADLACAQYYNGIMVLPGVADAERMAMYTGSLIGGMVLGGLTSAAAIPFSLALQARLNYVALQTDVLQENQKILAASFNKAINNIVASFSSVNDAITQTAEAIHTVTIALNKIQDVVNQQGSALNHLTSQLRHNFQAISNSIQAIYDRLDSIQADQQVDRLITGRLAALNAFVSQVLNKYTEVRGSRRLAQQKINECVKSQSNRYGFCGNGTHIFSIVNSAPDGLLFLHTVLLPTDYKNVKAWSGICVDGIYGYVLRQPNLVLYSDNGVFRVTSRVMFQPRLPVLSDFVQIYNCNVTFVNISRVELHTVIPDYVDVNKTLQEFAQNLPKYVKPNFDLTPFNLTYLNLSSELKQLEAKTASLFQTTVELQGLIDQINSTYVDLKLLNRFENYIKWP

HcoV-OC43 S protein = biological target: T2, HcoV-OC43 S protein (HcoV-OC43, UniProt P36334 14-1297); assay: direct ELISA, OD450
T2 sequence: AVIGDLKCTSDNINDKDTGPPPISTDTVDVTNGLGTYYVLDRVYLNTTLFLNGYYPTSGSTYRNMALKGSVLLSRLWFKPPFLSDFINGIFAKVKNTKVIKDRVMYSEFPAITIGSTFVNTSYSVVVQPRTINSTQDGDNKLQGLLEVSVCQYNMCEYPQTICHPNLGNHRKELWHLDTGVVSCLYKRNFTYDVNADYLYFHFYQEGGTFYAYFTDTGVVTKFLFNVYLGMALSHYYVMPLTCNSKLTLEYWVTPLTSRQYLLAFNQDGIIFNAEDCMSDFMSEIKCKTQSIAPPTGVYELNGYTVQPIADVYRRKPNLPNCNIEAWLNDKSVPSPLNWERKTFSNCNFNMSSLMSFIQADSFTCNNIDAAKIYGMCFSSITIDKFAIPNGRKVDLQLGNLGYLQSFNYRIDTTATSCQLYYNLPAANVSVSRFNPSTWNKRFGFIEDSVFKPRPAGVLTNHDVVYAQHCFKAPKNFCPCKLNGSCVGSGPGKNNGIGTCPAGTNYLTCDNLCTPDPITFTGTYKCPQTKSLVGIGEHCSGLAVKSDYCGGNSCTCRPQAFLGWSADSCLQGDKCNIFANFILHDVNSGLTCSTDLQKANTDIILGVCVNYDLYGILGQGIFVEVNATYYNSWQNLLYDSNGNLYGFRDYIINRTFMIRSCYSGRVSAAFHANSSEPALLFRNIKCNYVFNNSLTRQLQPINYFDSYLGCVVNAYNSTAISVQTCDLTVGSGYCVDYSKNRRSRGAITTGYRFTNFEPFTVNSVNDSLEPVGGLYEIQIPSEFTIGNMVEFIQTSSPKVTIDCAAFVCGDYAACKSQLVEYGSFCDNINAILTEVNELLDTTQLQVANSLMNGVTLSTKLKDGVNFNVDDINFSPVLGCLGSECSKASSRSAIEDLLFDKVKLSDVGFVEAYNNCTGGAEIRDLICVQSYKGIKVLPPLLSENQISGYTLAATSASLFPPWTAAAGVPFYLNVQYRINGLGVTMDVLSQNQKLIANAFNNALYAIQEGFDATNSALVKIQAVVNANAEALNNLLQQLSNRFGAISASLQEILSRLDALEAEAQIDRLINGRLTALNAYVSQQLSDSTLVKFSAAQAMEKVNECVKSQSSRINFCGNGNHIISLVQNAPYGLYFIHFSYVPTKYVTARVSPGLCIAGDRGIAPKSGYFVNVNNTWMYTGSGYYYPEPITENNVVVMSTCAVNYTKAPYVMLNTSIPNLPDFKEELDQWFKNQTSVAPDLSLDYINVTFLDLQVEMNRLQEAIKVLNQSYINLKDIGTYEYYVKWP

HcoV-229E S protein = biological target: T3, HcoV-229E S protein (HcoV-229E, UniProt P15423 16-1115); assay: direct ELISA, OD450
T3 sequence: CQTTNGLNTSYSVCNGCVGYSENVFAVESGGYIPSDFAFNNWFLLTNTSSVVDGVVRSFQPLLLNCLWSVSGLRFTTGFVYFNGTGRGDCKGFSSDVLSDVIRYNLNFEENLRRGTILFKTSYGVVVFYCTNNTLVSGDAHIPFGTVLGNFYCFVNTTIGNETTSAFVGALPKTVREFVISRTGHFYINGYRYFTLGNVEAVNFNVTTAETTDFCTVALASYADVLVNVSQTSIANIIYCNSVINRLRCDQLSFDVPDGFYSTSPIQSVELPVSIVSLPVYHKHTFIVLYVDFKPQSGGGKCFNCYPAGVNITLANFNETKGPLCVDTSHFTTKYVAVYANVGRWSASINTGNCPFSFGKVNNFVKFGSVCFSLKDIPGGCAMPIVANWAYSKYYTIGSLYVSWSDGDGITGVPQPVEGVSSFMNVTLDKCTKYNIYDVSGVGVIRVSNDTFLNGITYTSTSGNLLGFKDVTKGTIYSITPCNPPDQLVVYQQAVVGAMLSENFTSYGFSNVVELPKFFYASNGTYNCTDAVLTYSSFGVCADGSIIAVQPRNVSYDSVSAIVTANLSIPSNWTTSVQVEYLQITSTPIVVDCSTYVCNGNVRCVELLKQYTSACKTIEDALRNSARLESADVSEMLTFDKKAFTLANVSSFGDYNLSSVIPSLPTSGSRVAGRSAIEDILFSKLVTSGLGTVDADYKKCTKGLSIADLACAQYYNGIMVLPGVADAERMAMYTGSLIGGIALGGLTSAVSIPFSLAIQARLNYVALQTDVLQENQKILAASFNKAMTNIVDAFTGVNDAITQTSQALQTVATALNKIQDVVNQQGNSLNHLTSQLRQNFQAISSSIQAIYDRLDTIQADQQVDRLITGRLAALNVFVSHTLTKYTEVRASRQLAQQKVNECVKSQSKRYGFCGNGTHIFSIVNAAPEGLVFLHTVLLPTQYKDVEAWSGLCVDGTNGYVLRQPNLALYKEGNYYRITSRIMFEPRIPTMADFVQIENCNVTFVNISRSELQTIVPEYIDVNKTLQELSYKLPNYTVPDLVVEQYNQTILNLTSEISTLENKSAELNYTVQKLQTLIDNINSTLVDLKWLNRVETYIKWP

B1: rabbit monoclonal antibody 9H1 against the SARS-CoV-2 S1 (antibody, V domains shown)
VH: QSVEESGGRLVTPGTPLTLTCTVSGFSLSRYAMSWVRQAPGKGLEWIGIIVDSGHTAYASWAKGRFTISRTSTTVDLKMTSLTTEDTATYFCARETGGGAFYVFEFWGPGTVVTVSS
VL: AQVLTQTPSSVSAAVGGTVTINCQASEDIYDNLVWYQQKPGQPPKLLIYDASTLAFGVSSRFRGSGSGTHFTLTMRDVQCDDAATYYCQGEFSCSSGDCTAFGGGTEVVVKG
Kd [1]: 0.769 nM
koff [1]: 0.00025 s⁻¹
kon [1]: 325000 M⁻¹ s⁻¹
EC50 (read off the curve) [2]: ~0.02 µg/mL
binding result (HcoV-NL63 S protein): no binding
binding result (HcoV-OC43 S protein): no binding
binding result (HcoV-229E S protein): no binding

B2: rabbit monoclonal antibody 5E1 against the SARS-CoV-2 S1 (antibody, V domains shown)
VH: QSVEESGGRLVTPGTPLTLTCTVSGIDLSSYAMGWVRQAPGKGLEYIGIIYISGLTYYASWAKGRFTISKTSTTVDLKIPSPTTEDTATYFCARGEYNSHSHYLLWGPGTLVTVSS
VL: AYDMTQTPSSVSEPVGGTVSIKCQASQNIYSNLAWYQQKPGQRPKLLIYDASQLASGVPSRFKGSGSGTEYTLTISGVECADAATYYCQQGFESSDIFNVFGGGTEVVVKG
Kd [1]: ≤ 0.138 nM
koff [1]: ≤ 1e-05 s⁻¹
kon [1]: 72300 M⁻¹ s⁻¹
binding result (HcoV-NL63 S protein): no binding
binding result (HcoV-OC43 S protein): no binding
binding result (HcoV-229E S protein): no binding
